Literature values in US9994615B2, “Self-regulated peptide hydrogel for insulin delivery” (Massachusetts Institute of Technology, priority 2012, dated 2018).

What was measured:
[1] = after subcutaneous injection

Row | Compound | Time basal level of insulin is maintained [1] | pKa
1 | glargine | up to 24 hours | 
2 | insulin detemir | up to 20 hours | 
3 | OB(O)c1ccccc1 [phenylboronic acid] |  | approximately 8.9
